{
  "source": "patent US20140274782A1",
  "about": "“AFFINITY REAGENTS AND METHODS FOR DETECTION, PURIFICATION, AND PROTEOMIC ANALYSIS OF METHYLATED PROTEINS” (The Board of Trustees of the Leland Stanford Junior …, priority 2013, published 2014)",
  "molecules": {"B1": {"name": "Splicing regulatory glutamine/lysine-rich protein 1 (protein, UniProt Q8N9Q2 1-155, looked up)", "Protein SREK1IP1": "MAVPGCNKDSVRAGCKKCGYPGHLTFECRNFLRVDPKRDIVLDVSSTSSEDSDEENEELNKLQALQEKRINEEEEKKKEKSKEKIKLKKKRKRSYSSSSTEEDTSKQKKQKYQKKEKKKEKKSKSKKGKHHKKEKKKRKKEKHSSTPNSSEFSRK"}, "B2": {"name": "Cleavage and polyadenylation specificity factor subunit 2 (protein, UniProt Q9P2I0 1-782, looked up)", "Cleavage and polyadenylation …": "MTSIIKLTTLSGVQEESALCYLLQVDEFRFLLDCGWDEHFSMDIIDSLRKHVHQIDAVLLSHPDPLHLGALPYAVGKLGLNCAIYATIPVYKMGQMFMYDLYQSRHNTEDFTLFTLDDVDAAFDKIQQLKFSQIVNLKGKGHGLSITPLPAGHMIGGTIWKIVKDGEEEIVYAVDFNHKREIHLNGCSLEMLSRPSLLITDSFNATYVQPRRKQRDEQLLTNVLETLRGDGNVLIAVDTAGRVLELAQLLDQIWRTKDAGLGVYSLALLNNVSYNVVEFSKSQVEWMSDKLMRCFEDKRNNPFQFRHLSLCHGLSDLARVPSPKVVLASQPDLECGFSRDLFIQWCQDPKNSIILTYRTTPGTLARFLIDNPSEKITEIELRKRVKLEGKELEEYLEKEKLKKEAAKKLEQSKEADIDSSDESDIEEDIDQPSAHKTKHDLMMKGEGSRKGSFFKQAKKSYPMFPAPEERIKWDEYGEIIKPEDFLVPELQATEEEKSKLESGLTNGDEPMDQDLSDVPTKCISTTESIEIKARVTYIDYEGRSDGDSIKKIINQMKPRQLIIVHGPPEASQDLAECCRAFGGKDIKVYMPKLHETVDATSETHIYQVRLKDSLVSSLQFCKAKDAELAWIDGVLDMRVSKVDTGVILEEGELKDDGEDSEMQVEAPSDSSVIAQQKAMKSLFGDDEKETGEESEIIPTLEPLPPHEVPGHQSVFMNEPRLSDFKQVLLREGIQAEFVGGVLVCNNQVAVRRTETGRIGLEGCLCQDFYRIRDLLYEQYAIV"}, "B3": {"name": "ACIN1: a known G9a substrate (protein, UniProt Q9UKV3 1-1341, looked up)", "Apoptotic chromatin …": "MWRRKHPRTSGGTRGVLSGNRGVEYGSGRGHLGTFEGRWRKLPKMPEAVGTDPSTSRKMAELEEVTLDGKPLQALRVTDLKAALEQRGLAKSGQKSALVKRLKGALMLENLQKHSTPHAAFQPNSQIGEEMSQNSFIKQYLEKQQELLRQRLEREAREAAELEEASAESEDEMIHPEGVASLLPPDFQSSLERPELELSRHSPRKSSSISEEKGDSDDEKPRKGERRSSRVRQARAAKLSEGSQPAEEEEDQETPSRNLRVRADRNLKTEEEEEEEEEEEEDDEEEEGDDEGQKSREAPILKEFKEEGEEIPRVKPEEMMDERPKTRSQEQEVLERGGRFTRSQEEARKSHLARQQQEKEMKTTSPLEEEEREIKSSQGLKEKSKSPSPPRLTEDRKKASLVALPEQTASEEETPPPLLTKEASSPPPHPQLHSEEEIEPMEGPAPAVLIQLSPPNTDADTRELLVSQHTVQLVGGLSPLSSPSDTKAESPAEKVPEESVLPLVQKSTLADYSAQKDLEPESDRSAQPLPLKIEELALAKGITEECLKQPSLEQKEGRRASHTLLPSHRLKQSADSSSSRSSSSSSSSSRSRSRSPDSSGSRSHSPLRSKQRDVAQARTHANPRGRPKMGSRSTSESRSRSRSRSRSASSNSRKSLSPGVSRDSSTSYTETKDPSSGQEVATPPVPQLQVCEPKERTSTSSSSVQARRLSQPESAEKHVTQRLQPERGSPKKCEAEEAEPPAATQPQTSETQTSHLPESERIHHTVEEKEEVTMDTSENRPENDVPEPPMPIADQVSNDDRPEGSVEDEEKKESSLPKSFKRKISVVSATKGVPAGNSDTEGGQPGRKRRWGASTATTQKKPSISITTESLKSLIPDIKPLAGQEAVVDLHADDSRISEDETERNGDDGTHDKGLKICRTVTQVVPAEGQENGQREEEEEEKEPEAEPPVPPQVSVEVALPPPAEHEVKKVTLGDTLTRRSISQQKSGVSITIDDPVRTAQVPSPPRGKISNIVHISNLVRPFTLGQLKELLGRTGTLVEEAFWIDKIKSHCFVTYSTVEEAVATRTALHGVKWPQSNPKFLCADYAEQDELDYHRGLLVDRPSETKTEEQGIPRPLHPPPPPPVQPPQHPRAEQREQERAVREQWAEREREMERRERTRSEREWDRDKVREGPRSRSRSRDRRRKERAKSKEKKSEKKEKAQEEPPAKLLDDLFRKTKAAPCIYWLPLTDSQIVQKEAERAERAKEREKRRKEQEEEEQKEREKEAERERNRQLEREKRREHSRERDRERERERERDRGDRDRDRERDRERGRERDRRDTKRHSRSRSRSTPVRDRGGRR"}, "B4": {"name": "Peroxiredoxin-2 (protein, UniProt P32119 2-198, looked up)", "Peroxiredoxin-2": "ASGNARIGKPAPDFKATAVVDGAFKEVKLSDYKGKYVVLFFYPLDFTFVCPTEIIAFSNRAEDFRKLGCEVLGVSVDSQFTHLAWINTPRKEGGLGPLNIPLLADVTRRLSEDYGVLKTDEGIAYRGLFIIDGKGVLRQITVNDLPVGRSVDEALRLVQAFQYTDEHGEVCPAGWKPGSDTIKPNVDDSKEYFSKHN"}},
  "key": {"3×MBT domain of L3MBTL1": {"system": "3×MBT domain of L3MBTL1", "assay": "Triple SILAC pull-down, 3xMBT/3xMBTD355N ratio (cytoplasmic, nuclear and chromatin fractions of 293T cells);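 further: proteins quantified with MaxQuant, requiring at least two unique peptides and quantification in both label directions, normalized to the mean of proteins from a digested loading control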", "type": "binding, human", "conditions": "SILAC ratio, pull-down by 3xMBT vs 3xMBTD355N, 293T cells"}, "G9a and GLP": {"target": "T1, G9a and GLP (Homo sapiens, UniProt Q96KQ7+Q9H9B1)", "T1 sequence (Q96KQ7 2-1210 limits assumed)": "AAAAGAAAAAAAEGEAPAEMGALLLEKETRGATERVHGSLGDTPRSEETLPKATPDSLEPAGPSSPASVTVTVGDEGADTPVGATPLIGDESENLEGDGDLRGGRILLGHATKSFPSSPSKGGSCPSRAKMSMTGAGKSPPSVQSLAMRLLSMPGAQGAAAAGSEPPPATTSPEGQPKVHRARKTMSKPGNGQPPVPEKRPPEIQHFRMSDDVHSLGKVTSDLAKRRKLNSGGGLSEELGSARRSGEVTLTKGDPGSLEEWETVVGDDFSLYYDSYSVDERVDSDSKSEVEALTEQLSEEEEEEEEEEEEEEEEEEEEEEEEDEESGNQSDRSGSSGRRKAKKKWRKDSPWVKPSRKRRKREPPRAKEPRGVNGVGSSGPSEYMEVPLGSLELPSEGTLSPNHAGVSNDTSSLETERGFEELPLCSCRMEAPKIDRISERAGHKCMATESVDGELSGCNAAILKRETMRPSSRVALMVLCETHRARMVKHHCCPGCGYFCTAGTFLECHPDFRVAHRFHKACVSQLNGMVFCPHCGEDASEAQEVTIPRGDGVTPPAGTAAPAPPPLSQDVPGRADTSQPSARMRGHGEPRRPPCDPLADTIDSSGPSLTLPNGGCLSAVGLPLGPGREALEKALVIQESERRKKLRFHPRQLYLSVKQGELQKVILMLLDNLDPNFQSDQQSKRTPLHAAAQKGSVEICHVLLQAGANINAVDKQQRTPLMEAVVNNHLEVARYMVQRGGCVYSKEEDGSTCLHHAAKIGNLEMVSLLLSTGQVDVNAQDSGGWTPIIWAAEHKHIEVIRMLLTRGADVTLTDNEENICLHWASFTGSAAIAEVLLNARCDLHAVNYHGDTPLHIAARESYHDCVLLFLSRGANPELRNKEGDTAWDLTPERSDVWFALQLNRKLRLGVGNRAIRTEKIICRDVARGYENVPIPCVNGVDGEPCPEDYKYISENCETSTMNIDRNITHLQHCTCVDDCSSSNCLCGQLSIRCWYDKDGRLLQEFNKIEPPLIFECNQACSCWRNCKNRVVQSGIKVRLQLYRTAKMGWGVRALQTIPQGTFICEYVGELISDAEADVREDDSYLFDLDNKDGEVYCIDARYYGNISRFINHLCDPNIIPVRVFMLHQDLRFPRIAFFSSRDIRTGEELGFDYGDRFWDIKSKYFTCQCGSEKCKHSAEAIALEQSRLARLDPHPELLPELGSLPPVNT", "T1 sequence (Q9H9B1 2-1298 limits assumed)": "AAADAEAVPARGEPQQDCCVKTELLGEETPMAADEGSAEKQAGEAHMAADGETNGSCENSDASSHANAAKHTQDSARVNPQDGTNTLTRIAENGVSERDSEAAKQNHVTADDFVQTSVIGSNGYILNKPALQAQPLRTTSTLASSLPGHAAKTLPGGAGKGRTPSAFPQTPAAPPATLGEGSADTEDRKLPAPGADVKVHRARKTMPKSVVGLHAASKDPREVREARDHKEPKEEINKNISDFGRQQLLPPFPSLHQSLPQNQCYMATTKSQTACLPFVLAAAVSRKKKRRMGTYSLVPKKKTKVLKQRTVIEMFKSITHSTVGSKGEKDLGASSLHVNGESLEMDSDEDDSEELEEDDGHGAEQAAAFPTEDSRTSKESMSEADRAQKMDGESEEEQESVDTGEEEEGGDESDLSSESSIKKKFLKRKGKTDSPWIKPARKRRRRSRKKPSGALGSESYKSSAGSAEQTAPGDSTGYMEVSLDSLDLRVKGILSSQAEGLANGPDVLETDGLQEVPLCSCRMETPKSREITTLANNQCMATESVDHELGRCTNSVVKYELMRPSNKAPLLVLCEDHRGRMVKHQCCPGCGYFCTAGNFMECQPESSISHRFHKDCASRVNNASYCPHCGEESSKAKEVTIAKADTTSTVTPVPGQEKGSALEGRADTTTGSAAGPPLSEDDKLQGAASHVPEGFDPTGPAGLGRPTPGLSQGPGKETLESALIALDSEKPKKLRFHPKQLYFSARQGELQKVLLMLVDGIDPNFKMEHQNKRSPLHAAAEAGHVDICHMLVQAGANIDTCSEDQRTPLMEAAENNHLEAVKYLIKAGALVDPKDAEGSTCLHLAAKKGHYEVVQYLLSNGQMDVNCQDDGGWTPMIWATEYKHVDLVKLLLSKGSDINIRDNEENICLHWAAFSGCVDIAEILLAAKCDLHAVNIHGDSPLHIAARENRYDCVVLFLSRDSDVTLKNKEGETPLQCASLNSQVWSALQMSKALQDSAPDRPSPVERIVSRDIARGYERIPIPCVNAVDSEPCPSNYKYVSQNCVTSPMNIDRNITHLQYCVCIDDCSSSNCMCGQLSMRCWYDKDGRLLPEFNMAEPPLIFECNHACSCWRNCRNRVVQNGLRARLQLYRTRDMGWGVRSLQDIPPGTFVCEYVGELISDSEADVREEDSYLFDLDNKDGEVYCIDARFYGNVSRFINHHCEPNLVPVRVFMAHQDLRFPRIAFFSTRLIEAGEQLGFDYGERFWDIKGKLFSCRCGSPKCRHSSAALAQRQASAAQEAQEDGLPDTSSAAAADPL", "assay": "Triple SILAC pull-down after UNC0638 treatment of 293T cells, DMSO/UNC0638 ratio of protein captured by 3×MBT;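 further: mass spectrometry (Q-Exactive) SILAC quantitation, DMSO/UNC0638 ratio computed after subtracting 3×MBTD355N mutant pull-down background, only proteins with at least twofold 3×MBT over mutant signal considered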", "type": "cell-based", "design": "cells were treated for 24 hours with UNC0638 at 2.5 μM or DMSO vehicle control; endogenous in cells; host or cells: HEK 293T", "conditions": "for Protein Ratios DMSO/UNC0638: SILAC ratio of protein captured by 3xMBT, 293T cells treated 24 hours with UNC0638 at 2.5 μM or DMSO"}},
  "data": [
    {"molecule": "B1", "values": [
      {"measurement": "Protein Ratios 3xMBT/D355N", "setting": "3×MBT domain of L3MBTL1", "result": 2.9},
      {"measurement": "Protein Ratios DMSO/UNC0638", "setting": "G9a and GLP", "result": 4.4}
    ]},
    {"molecule": "B2", "values": [
      {"measurement": "Protein Ratios 3xMBT/D355N", "setting": "3×MBT domain of L3MBTL1", "result": 8.1},
      {"measurement": "Protein Ratios DMSO/UNC0638", "setting": "G9a and GLP", "result": 3.1}
    ]},
    {"molecule": "B3", "values": [
      {"measurement": "change in amount captured by 3×MBT following UNC0638 treatment", "setting": "G9a and GLP; 293T cells", "result": "decreased strongly"}
    ]},
    {"molecule": "B4", "values": [
      {"measurement": "Protein Ratios 3xMBT/D355N", "setting": "3×MBT domain of L3MBTL1", "result": 8.6},
      {"measurement": "Protein Ratios DMSO/UNC0638", "setting": "G9a and GLP", "result": 2.3}
    ]}
  ]
}
